Source: article PMC6017014, “VpStyA1/VpStyA2B of Variovorax paradoxus EPS: An Aryl Alkyl Sulfoxidase Rather than a Styrene Epoxidizing Monooxygenase” (Molecules : A Journal of Synthetic Chemistry and Natural …, 2018)
Values belong to the compound of their own block, whether it stands above or below them.

How the values were obtained:
VpStyA2B = target: T1, VpStyA2B (Variovorax paradoxus, UniProt E6V139); assay: NADH consumption at […] nm, Michaelis-Menten fit; format: biochemical; conditions: linker AREAV (408-412) replaced/extended; NADH in excess, concentrations as for wild type; 20 mM Tris-HCl pH 7.5, 30 °C; read-out: Acceptor FAD ^1 / Km
T1 construct: gene styA2B

[1] = test system: Cc1cc2nc3c(=O)[nH]c(=O)nc-3n(C[C@H](O)[C@H](O)[C@H](O)COP(=O)(O)O)c2cc1C; assay: purified protein; format: biochemical, Variovorax paradoxus; conditions: NADH 164 µM, FMN 4.1-90.2 µM, 20 mM Tris-HCl pH 7.5, 30 °C
[2] = test system: Cc1cc2nc3c(=O)[nH]c(=O)nc-3n(C[C@H](O)[C@H](O)[C@H](O)COP(=O)(O)OP(=O)(O)OC[C@H]3O[C@@H](n4cnc5c(N)ncnc54)[C@H](O)[C@@H]3O)c2cc1C; assay: purified protein; format: biochemical, Variovorax paradoxus; conditions: 20 mM Tris-HCl pH 7.5, 30 °C
[3] = 408-HHHHH linker mutant, NADH in excess, concentrations as for wild type
[4] = 408-TIVVV linker mutant, NADH in excess, concentrations as for wild type
[5] = 408-WYHHH linker mutant, NADH in excess, concentrations as for wild type
[6] = 408-AAAAA linker mutant, NADH in excess, concentrations as for wild type

T1 sequence (E6V139 1-578): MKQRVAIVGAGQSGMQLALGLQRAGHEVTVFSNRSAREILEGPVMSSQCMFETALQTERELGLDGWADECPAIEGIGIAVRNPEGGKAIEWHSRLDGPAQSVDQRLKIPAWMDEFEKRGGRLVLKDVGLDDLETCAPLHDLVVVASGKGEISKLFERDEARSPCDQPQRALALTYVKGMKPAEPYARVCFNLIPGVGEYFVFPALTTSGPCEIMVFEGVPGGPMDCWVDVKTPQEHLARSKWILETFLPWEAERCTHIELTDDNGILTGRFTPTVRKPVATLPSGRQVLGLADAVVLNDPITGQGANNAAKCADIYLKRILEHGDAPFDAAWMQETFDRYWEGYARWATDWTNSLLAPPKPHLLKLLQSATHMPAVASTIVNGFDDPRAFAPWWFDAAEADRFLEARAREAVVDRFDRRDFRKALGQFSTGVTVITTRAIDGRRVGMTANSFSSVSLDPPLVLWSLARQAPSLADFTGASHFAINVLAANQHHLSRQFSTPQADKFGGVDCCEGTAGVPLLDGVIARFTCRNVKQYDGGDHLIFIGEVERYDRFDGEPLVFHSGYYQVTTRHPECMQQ

Km (VpStyA2B): 7.4 µM
Compound: Cc1cc2nc3c(=O)[nH]c(=O)nc-3n(C[C@H](O)[C@H](O)[C@H](O)COP(=O)(O)OP(=O)(O)OC[C@H]3O[C@@H](n4cnc5c(N)ncnc54)[C@H](O)[C@@H]3O)c2cc1C [FAD]

Compound: VpStyA2B (Variovorax paradoxus EPS)
Km [1]: 45.9 ± 6.8 µM
Vmax [1]: 26 µmol/min/mg
kcat [1]: 28.7 ± 1.9 s⁻¹
kcat/Km [1]: 570000 M⁻¹ s⁻¹
Km ([2]; NADH 164 µM, FAD 6.3-78.8 µM): 33.6 ± 4.0 µM
Vmax ([2]; NADH 164 µM, FAD 6.3-78.8 µM): 20.2 µmol/min/mg
kcat ([2]; NADH 164 µM, FAD 6.3-78.8 µM): 22.3 ± 1.1 s⁻¹
kcat/Km ([2]; NADH 164 µM, FAD 6.3-78.8 µM): 640000 M⁻¹ s⁻¹

Compound: VpStyA2B (Variovorax paradoxus EPS; A408H/A411H/E410H/R409H/V412H)
Km [2, 3]: 14.5 µM
Vmax [2, 3]: 3.1 µmol/min/mg
kcat/Km [2, 3]: 230000 M⁻¹ s⁻¹

Compound: VpStyA2B (Variovorax paradoxus EPS; A408T/A411V/E410V/R409I)
Km [2, 4]: 5.1 µM
Vmax [2, 4]: 3.1 µmol/min/mg
kcat/Km [2, 4]: 650000 M⁻¹ s⁻¹

Compound: VpStyA2B (Variovorax paradoxus EPS; A408W/A411H/E410H/R409Y/V412H)
Km [2, 5]: 3.2 µM
Vmax [2, 5]: 6.9 µmol/min/mg
kcat/Km [2, 5]: 2.3e+06 M⁻¹ s⁻¹

Compound: VpStyA2B (Variovorax paradoxus EPS; E410A/R409A/V412A)
Km [2, 6]: 1.8 µM
Vmax [2, 6]: 8.8 µmol/min/mg
kcat/Km [2, 6]: 5.21e+06 M⁻¹ s⁻¹
